From PMC10603095 (Nature Communications, 2023)
Substitutions are numbered along the chain they refer to. In names and notes the source's numbering stands.

B1: DNPH1^E104Q (human 2'-deoxynucleoside 5'-monophosphate N-glycosidase, crystallisation construct aa 19-162, E104Q) (enzyme, UniProt O43598 19-162, looked up)
chain: GRPALYFCGSIRGGREDRTLYERIVSRLRRFGTVLTEHVAAAELGARGEEAAGGDRLIHEQDLEWLQQADVVVAEVTQPSLGVGYQLGRAVAFNKRILCLFRPQSGRVLSAMIRGAADGSRFQVWDYEEGEVEALLDRYFEADP
notes: also called RCL; source: E. coli BL21 Star (DE3), purified (Ni-NTA, TEV cleavage, HisTrap and Resource Q flow-through, size exclusion)
B2: DNPH1^E55Q (human 2'-deoxynucleoside 5'-monophosphate N-glycosidase, crystallisation construct aa 19-162, E55Q) (enzyme, UniProt O43598 19-162, looked up)
chain: B1 chain with E37Q, Q86E
modifications: deoxyribose monophosphate (dRP) covalently fused to E104
notes: 2'-deoxynucleoside 5'-monophosphate N-glycosidase (DNPH1, RCL), human, isoform 1, residues 19-162 (crystallisation construct) with the point mutation E55Q; Co-crystallised with hmdUMP; the crystal holds the trapped glycosyl-enzyme intermediate; also called RCL

Tests used:
[1] = target: the molecule itself; assay: crystal structure; DNPH1^E104Q co-crystallised with hmdUMP at 4 °C; space group P2_(1), 1.78 Å; six chains in the asymmetric unit
[2] = target: the molecule itself; assay: crystal structure; DNPH1^E55Q co-crystallised with hmdUMP; space group P2_(1)2_(1)2_(1), 1.65 Å; one homodimer in the asymmetric unit

Protein | binding result [1] | binding result [2]
B1 | binds | 
B2 |  | binds
